Literature values in article PMC3565385 (Journal of computer-aided molecular design, 2012).

Test system: PTH1R
Conditions: ΔΔG = RT ln(Ki mutant/Ki wild-type) from published alanine scanning

B1: PTH R20A: parathyroid hormone with Arg20 replaced by alanine (peptide, UniProt P01270 32-115, looked up, variant R20A)
Parathyroid hormone: SVSEIQLMHNLGKHLNSMEAVEWLRKKLQDVHNFVALGAPLAPRDAGSQRPRKKEDNVLVESHEKSLGEADKADVNVLTKAKSQ
modifications: Parathyroid hormone
experimental ΔΔG: 2.96 kcal/mol
